In the supplement of paper PMC10567573:

B1: VTI1B (parent)
chain: NKLLLSIIILLELAILGGLVYYKF
B2: ZNF449 (parent)
chain: TLHQRTHTEERPFKCNYCGKSFRQ

Variants of: B1
Assay: protein stability index of a GFP-peptide fusion (GPS, HEK-293T) (PSI 1-6); higher = more stable
Settings: c terminus: a fixed tail appended
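Further: lentivirally expressed fusions sorted by FACS into six bins by GFP to DsRed ratio, PSI derived from sequencing read proportions per bin multiplied by bin number.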

Variant | protein stability index
K2R | 2.99
K2H | 2.48
K2T | 2.66
K2M | 2.6
K2E | 2
K2V | 3.38
K2W | 2.8
K2D | 2.35
K2N | 1.92
K2I | 3.89
K2S | 2.46
K2C | 2.17
K2Q | 4.47
K2Y | 3.38
K2A | 3.74
K2P | 2.43
K2F | 3.52
L4H | 3.22
L4Q | 3.91
L4D | 3.75
L4M | 1.8
L4K | 2.39
L4Y | 2.34
L4W | 2.25
L4C | 2.35

Variant | protein stability index
L4I | 2.94
L4A | 3.17
L4E | 2.47
L4N | 2.28
L4F | 3.51
L4S | 2.38
L4T | 1.51
L4V | 2.82
L4G | 2.29
I9H | 2.47
I9E | 2.85
I9D | 3.1
I9K | 3.22
I9F | 2.03
I9G | 2.8
I9C | 2.97
L3H | 3.76
L3T | 2.98
L3M | 2.52
L3G | 2.83
L3S | 1.78
L3C | 2.54
L3A | 2.92
L3I | 2.78
L3Q | 2.99

Variant | protein stability index
L3N | 3.2
L3V | 3.79
L3E | 2.84
L3D | 3.73
L3Y | 3.55
L3P | 3.24
L3W | 2.79
L3R | 3.98
L3K | 1.85
N1S | 2.63
N1M | 2.75
N1A | 3.04
N1C | 3.66
N1F | 2.82
N1P | 1.77
N1Y | 2.36
N1Q | 2.12
N1T | 3.56
N1H | 3.67
N1D | 3
N1R | 2.99
N1E | 4.24
N1I | 2.97
N1L | 2.74
N1G | 3.29

Variant | protein stability index
N1V | 2.54
N1K | 1.85
N1W | 3.84
I8S | 3.02
I8E | 2.35
I8G | 1.21
I8A | 3.36
I8P | 2.61
I8W | 2.33
I8M | 2.81
I8L | 3.04
I8R | 1.95
I8H | 4.21
I8K | 2.87
I8D | 3.18
I8V | 2.56
I8N | 3.11
I8F | 2.03
I8T | 3.41
I8Q | 3.49
I8Y | 3.31
I7Q | 2.44
I7G | 3.04
I7R | 3.87
I7K | 2.41

Variant | protein stability index
I7D | 2.84
I7W | 3.61
I7L | 3.54
I7N | 2.1
I7M | 3.23
I7Y | 2.74
I7H | 2.65
I7E | 1.86
I7V | 2.32
I7T | 3.78
I7F | 2.31
I7C | 2.9
I7A | 2.32
L5H | 3.13
L5E | 4.19
L5P | 2.39
L5R | 1.8
L5D | 2.64
L5A | 2.22
L5I | 3.01
L5T | 3.88
L5F | 2.55
L5V | 2.08
L5C | 2.61
L5Y | 3.05

Variant | protein stability index
L5W | 1.86
L5Q | 4.28
L5K | 2.14
L5N | 3.71
S6N | 2.47
S6D | 2.42
S6G | 1.88
S6Q | 3.32
S6W | 2.11
S6R | 3.55
S6P | 3.12
S6V | 2.5
S6A | 3.54
S6K | 2.63
S6H | 2.51
S6L | 2.02
S6Y | 2.76
S6M | 2.86
S6I | 1.85
S6F | 2.67
S6T | 3.52
S6C | 3.11
S6E | 3.51

Variants of: B2
Assay: as above
Settings: c terminus: a fixed tail appended

Variant | protein stability index
Q24G | 2.62
Q24S | 3.49
Q24D | 2.24
Q24V | 1.75
Q24I | 1.68
Q24P | 2.87
Q24N | 2.27
Q24F | 2.56
Q24Y | 3.2
Q24L | 2.36
Q24W | 2.12
Q24M | 2.77
Q24T | 2.75
Q24C | 1.84
Q24E | 2.88
Q24A | 2.55
Q24R | 1.67
Q24H | 2.12
R23Y | 2.72
